Read-outs that look alike come from different tables or passages of the source.

These results are taken from article PMC2728148.

Common to all, as to assay: EMSA
On the technique in general: A gel shift assay detects complexes by their altered migration in electrophoresis.

The target in data set [1] is T1, CSB wild-type (Homo sapiens, UniProt Q03468 1-1493).
The target in data set [2] is T1, CSB wild-type. The source holds these as a separate data set.
Data set [3] concerns the target T1, CSB wild-type. The source holds these as a separate data set.
Data set [4] has as its target T1, CSB wild-type. This is another data set of the same source.

T1 sequence (Q03468 whole entry): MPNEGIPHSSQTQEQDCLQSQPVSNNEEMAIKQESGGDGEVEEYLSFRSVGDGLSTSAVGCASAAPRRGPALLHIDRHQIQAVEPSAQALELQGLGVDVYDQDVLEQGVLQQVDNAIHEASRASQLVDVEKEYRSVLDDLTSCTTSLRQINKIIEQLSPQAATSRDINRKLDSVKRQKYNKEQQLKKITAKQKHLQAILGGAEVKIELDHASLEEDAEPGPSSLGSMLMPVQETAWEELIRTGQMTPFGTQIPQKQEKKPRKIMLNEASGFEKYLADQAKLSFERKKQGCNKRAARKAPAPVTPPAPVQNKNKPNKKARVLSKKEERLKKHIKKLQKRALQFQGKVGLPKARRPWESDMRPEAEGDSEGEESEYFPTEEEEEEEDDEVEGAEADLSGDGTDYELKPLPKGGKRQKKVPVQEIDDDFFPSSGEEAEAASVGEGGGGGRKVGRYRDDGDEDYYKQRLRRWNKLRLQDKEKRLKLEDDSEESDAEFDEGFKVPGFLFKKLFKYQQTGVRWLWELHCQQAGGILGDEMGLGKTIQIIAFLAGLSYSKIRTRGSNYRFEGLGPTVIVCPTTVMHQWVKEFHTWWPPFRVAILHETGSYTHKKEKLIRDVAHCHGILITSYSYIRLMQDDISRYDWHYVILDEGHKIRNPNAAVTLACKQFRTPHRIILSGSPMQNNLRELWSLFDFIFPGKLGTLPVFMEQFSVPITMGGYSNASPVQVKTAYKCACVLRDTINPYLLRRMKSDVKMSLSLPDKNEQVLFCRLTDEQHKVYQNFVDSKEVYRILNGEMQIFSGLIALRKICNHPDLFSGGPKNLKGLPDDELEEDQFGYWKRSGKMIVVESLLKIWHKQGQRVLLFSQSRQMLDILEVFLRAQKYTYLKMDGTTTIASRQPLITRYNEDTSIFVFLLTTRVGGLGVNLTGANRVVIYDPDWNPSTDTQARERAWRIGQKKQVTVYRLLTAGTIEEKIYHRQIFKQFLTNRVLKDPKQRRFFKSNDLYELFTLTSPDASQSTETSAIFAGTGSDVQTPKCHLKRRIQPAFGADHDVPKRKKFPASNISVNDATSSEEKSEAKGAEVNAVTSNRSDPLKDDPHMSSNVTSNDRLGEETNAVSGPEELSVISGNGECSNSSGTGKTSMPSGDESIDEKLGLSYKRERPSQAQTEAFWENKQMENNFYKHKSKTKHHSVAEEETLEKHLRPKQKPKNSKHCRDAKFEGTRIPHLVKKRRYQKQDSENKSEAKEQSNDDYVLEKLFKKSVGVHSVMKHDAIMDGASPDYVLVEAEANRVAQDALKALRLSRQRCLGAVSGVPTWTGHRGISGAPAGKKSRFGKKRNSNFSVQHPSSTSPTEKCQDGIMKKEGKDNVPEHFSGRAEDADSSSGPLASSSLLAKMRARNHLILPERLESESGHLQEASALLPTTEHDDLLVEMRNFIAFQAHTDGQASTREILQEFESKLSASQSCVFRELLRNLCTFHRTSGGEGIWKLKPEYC

B1: 34G/34C (dsDNA)
DNA 1: GTACCCGGGGATCCGTACGGCGCATCAGCTGCAG
DNA 2: CTGCAGCTGATGCGCCGTACGGATCCCCGGGTAC
The term Kd denotes the concentration at which binding is half-saturated. Low values mean tighter binding, high ones weaker binding. Take B1: the results for the Kd with CSB wild-type [1], with CSB wild-type [2] and with CSB wild-type [3] were 13.7 ± 1.1 nM, 20.5 ± 5.2 nM and 10.7 ± 0.6 nM, respectively.

B2: DNA50/DNA49 fork (dsDNA)
DNA 1: GGGACGCGTCGGCCTGGCACGTCGGCCGCTGCGGCCAGGCACCCGATGGC
DNA 2: TTTGTTTGTTTGTTTGTTTGTTTGCCGACGTGCCAGGCCGACGCGTCCC
Molecule B2 displayed a Kd in the data set with CSB wild-type [4] of 5.9 ± 0.6 nM.

B3: DNA50/RNA49 fork (DNA:RNA)
DNA: GGGACGCGTCGGCCTGGCACGTCGGCCGCTGCGGCCAGGCACCCGATGGC
RNA: UUUGUUUGUUUGUUUGUUUGUUUGCCGACGUGCCAGGCCGACGCGUCCC
For the molecule B3, the Kd in the data set with CSB wild-type [4] was determined as 13.4 ± 3.3 nM.

B4: RNA50/RNA49 fork (dsRNA)
RNA 1: GGGACGCGUCGGCCUGGCACGUCGGCCGCUGCGGCCAGGCACCCGAUGGC
RNA 2: UUUGUUUGUUUGUUUGUUUGUUUGCCGACGUGCCAGGCCGACGCGUCCC
In the data set with CSB wild-type [4], B4 had a Kd of 3.6 ± 1.5 nM.
